System: MS2 coat protein
Experiment: apparent KD of MS2 coat protein; designed switch direction (-1 OFF switch, 1 ON switch): -1; higher = weaker reporter binding
Procedure, shortened: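 Three titration conditions were used: no input, 200 uM small-molecule ligand, and an oligonucleotide input. In each, SNAP-549-labelled MS2 coat protein was raised from 0.7 or 1.5 nM, doubling, to 3 µM over designed RNA switches transcribed on Illumina chips by stalled E. coli RNA polymerase. Curve fits of normalised cluster fluorescence gave values whose per-design median over clusters is the apparent KD.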

[1] = input ligand: microRNA oligo, concentration not stated
[2] = Eterna round: R95, input ligand: microRNA oligo, concentration not stated
[3] = Eterna round: R95, input ligand: FMN 200 uM
[4] = Eterna round: R95, input ligand: none

Sequence	apparent KD of MS2 coat protein (input ligand: FMN 200 uM)	apparent KD of MS2 coat protein [1]	apparent KD of MS2 coat protein (input ligand: none)	apparent KD of MS2 coat protein [2]	apparent KD of MS2 coat protein [3]	apparent KD of MS2 coat protein [4]
GCACGGAAUGUAGGAUAUUAGUGCGAUUAGCACUGAGAAGGACAUGAGGAUCACCCAUGUAAUAACAUAAUAAACCUUCCGUGC [Eli exng1 - 046] (Eterna round: R96, puzzle: Exclusion NG 1)	12.1 nM	8.27 nM	13.6 nM	–	–	–
GCACGGAGUGCAGGAUAUCUGUGCGAUUAGCUCAGAGAAGGGCACAUGAGGAUCACCCAUGUGUAUAAAACACAAAAUCCGUGC [Eli exng1 - 066] (Eterna round: R96, puzzle: Exclusion NG 1)	22.1 nM	10.2 nM	14.5 nM	–	–	–
GCACGGAGUGUAGGAUAUCUGUGCGAUUAGCUCAGAGAAGGACAUGAGGAUCACCCAUGUGUGUUCCAAUACUCAAAUCCGUGC [Eli exng1 - 064] (Eterna round: R96, puzzle: Exclusion NG 1)	710 nM	55.4 nM	52.1 nM	–	–	–
GCACGGAGUGUAGGAUAUUAGUGCGAUUAGCACUGAGAAGGACAUGAGGAUCACCCAUGUUCCUCAAUAACAUACCUUCCGUGC [Eli exng1 - 042] (Eterna round: R96, puzzle: Exclusion NG 1)	–	9.5 nM	–	–	–	–
GCACGGAGUGUAGGAUAUUAGUGCGAUUAGCACUGAGAAGGACAUGAGGAUCACCCAUGUUCCUCAUAAAUUAGCCUUCCGUGC [Eli exng1 - 037] (Eterna round: R96, puzzle: Exclusion NG 1)	27.4 nM	21 nM	27 nM	–	–	–
GCACGGAUGGUAGGAUAUCAUUGCGAUUAGCUAUGAGAAGGACCACAUGAGGAUCACCCAUGUCCUCUAAUUAGCCUUCCGUGC [Eli exng1 - 016] (Eterna round: R96, puzzle: Exclusion NG 1)	–	156 nM	–	–	–	–
GCACGGAUGGUAGGAUAUCCUUGCGAUUAGCAAGGAGAAGGACCACAUGAGGAUCACCCAUGUACCUCAAUUAUCCUUCCGUGC [Eli exng1 - 023] (Eterna round: R96, puzzle: Exclusion NG 1)	12.7 nM	9.18 nM	15.8 nM	–	–	–
GCAGAAAGUGUAGGAUAUAUAAAUUAGCGGAAACGCAAUACAUGAGGAUCACCCAUGUUUCCUCAAUAGAAGGGCAAAAGCUGC [EXNG2 V2 e] (Eterna round: R96, puzzle: Exclusion NG 2)	88 nM	37.9 nM	79.8 nM	–	–	–
GCAGACGUAGUGAGGAUAUGCUCUACCUCGGUAGAGCAGAAGGCACAUGAGGAUCACCCAUGUGGCUCCUCAUU [Omei Ex4B B22] (Eterna round: R97, puzzle: Brourd's mod of Exclusion 4)	16.8 nM	–	15 nM	–	–	–
GCAGCAACUCUAACCAACUAAACAUGAGGAUCACCCAUGUCUCAGGAUAUGGUCUGGAUUACAGGCCAGAAGGGAGAAAGCUGC [Eli exng3 - 042] (Eterna round: R96, puzzle: Exclusion NG 3)	12.4 nM	12.3 nM	12.6 nM	–	–	–
GCAGCAUAGAUAACAUACUGUUACAUGAGGAUCACCCAUGUAUAGGAUAUGGUCUGGAUUACAGGCCAGAAGGGUACAAGCUGC [Eli exng3 - 022] (Eterna round: R96, puzzle: Exclusion NG 3)	12.6 nM	9.84 nM	14.4 nM	–	–	–
GCAGCAUAGUCGGAAACGACAGAACAUGAGGAUCACCCAUGUCAGGAUAUGGUCUGGAUUACAGGCCAGAAGGGACAAAGCUGC [Eli exng3 - 008] (Eterna round: R96, puzzle: Exclusion NG 3)	19.6 nM	14.1 nM	19.8 nM	–	–	–
GCAGCGUAUGUAGGAUAUCGGUCAGUUUCUGAUCGAGAAGGACAUGAGGAUCACCCAUGUGCGGUCAUGCGUGAGCAUGGCUGC [JL ENG1 3.74] (Eterna round: R96, puzzle: Exclusion NG 1)	268 nM	31.3 nM	41.2 nM	–	–	–
GCAGCGUAUGUAGGAUAUCGGUCAGUUUCUGAUCGAGAAGGACAUGAGGAUCACCCAUGUUAUUUCAUGCGUGAGCAUGGCUGC [JL ENG1 3.73] (Eterna round: R96, puzzle: Exclusion NG 1)	271 nM	31 nM	37.1 nM	–	–	–
GCAGCUAACUGUGAUAACAGCACAUGAGGAUCACCCAUGUCUGAGGAUAUGGACUGGAUUACAGUCCAGAAGGCAGAAUGCUGC [Zipper Style 7] (Eterna round: R96, puzzle: Exclusion NG 3)	10.8 nM	8.87 nM	13.4 nM	–	–	–
GCAGGUUAAGUCAGGAUAUACCUAUGGAUACAUAGGUAGAAGGGACAUGAGGAUCACCCAUGUGGCUCACCUGC [Fiskers BMX 4 - 60] (puzzle: Brourd's mod of Exclusion 4)	–	–	–	21.6 nM	–	–

Sequence	apparent KD of MS2 coat protein (input ligand: FMN 200 uM)	apparent KD of MS2 coat protein [1]	apparent KD of MS2 coat protein (input ligand: none)	apparent KD of MS2 coat protein [2]	apparent KD of MS2 coat protein [3]	apparent KD of MS2 coat protein [4]
GCAGUUCGAGUUAGGAUAUGAUGUUAAUUCGGAUAUCAGAAGGAACUUGAGGAUCACCCAAGUAUAGAUGUUGU [JR_BMEx4_Sub061] (Eterna round: R97, puzzle: Brourd's mod of Exclusion 4)	31.3 nM	–	19.8 nM	–	–	–
GCAUCCAUAGUGAGGAUAUACCUCUGGAUACAUAGGUAGAAGGCACAUGAGGAUCACCCAUGUUCUUAGGAUGC [Fiskers BMX 4 - 34] (puzzle: Brourd's mod of Exclusion 4)	–	–	–	23.9 nM	–	–
GCAUGCUAUGUCAGGAUAUACCUCUGGAUACAUAGGUAGAAGGGACAUGAGGAUCACCCAUGUCCUCAUCAUGC [Fiskers BMX 4 - 25] (puzzle: Brourd's mod of Exclusion 4)	–	–	–	13.5 nM	–	–
GCAUUUGAGCAGGAUAUAGCCUGAACAUAAUGGUUAGAAGGGCUCACAUGAGGAUCACCCAUGUGGUGUCCAAA [Inratete] (puzzle: Exclusion 6)	–	–	–	15.3 nM	76.4 nM	15.6 nM
GCCAAGUCAGGAUAUACAUGAGGAUCACCCAUGUAGGACGCUAUUUUGAUCUUGGUAGGUAGAAGGGACAUGGG [Mainaso] (puzzle: Exclusion 3)	–	–	–	21.8 nM	–	–
GCCAGAGCAGGAUAUCUAAUAUCUCACAUGAGGAUCACCCAUGUCUAGCGAAAGCUAGAGGGAGAAGGGCUCUGGC [Mat - Exclusion 5 - Eli mod - D93] (puzzle: Exclusion 5)	–	–	–	29.4 nM	28.1 nM	41.6 nM
GCCAGAGCAGGAUAUCUAAUAUGUCACAUGAGGAUCACCCAUGUCCAGCGAAAGCUGGAGGGAGAAGGGCUCUGGC [Fiskers Ex 5 - 21] (puzzle: Exclusion 5)	–	–	–	51.8 nM	–	–
GCCAGAGCAGGAUAUUCAAUAAUCCACAUGAGGAUCACCCAUGUCCAGCGAAAGCUGGAGGGAGAAGGGCUCUGGC [Fiskers Ex 5 - 7] (puzzle: Exclusion 5)	–	–	–	73.4 nM	–	–
GCCAGAGCAGGAUAUUCAAUAAUUCACAUGAGGAUCACCCAUGUCCAGCGAAAGCUGGAGGGAGAAGGGCUCUGGC [Fiskers Ex 5 - 2] (puzzle: Exclusion 5)	–	–	–	33.4 nM	17.5 nM	44.3 nM
GCCAGAGCAGGAUAUUCAAUAUCACACAUGAGGAUCACCCAUGUCUAUCGAAAGAUAGAGGGAGAAGGGCUCUGGC [Mat - Exclusion 5 - Eli mod - D94] (puzzle: Exclusion 5)	–	–	–	55.2 nM	–	–
GCCCGGGCAGGAUAUACAAUGAGCUUGAGAAAUCGAGUUCGACAUGAGGAUCACCCAUGUAGAAGGGCCCGGGC [-37.4, -35.1 kcal, A 28% 1] (Eterna round: R97, puzzle: Exclusion 2)	24.5 nM	–	14.9 nM	–	–	–
GCCCGUGGGCAAGGAUAUCCUACGCUGUUCUGGUUCGUGUCUGUCACAUGAGGAUCACCCAUGUGGGAGAAGGUGCAUUAGGGU [Design 54] (Eterna round: R96, puzzle: Exclusion NG 2)	16.7 nM	12.3 nM	16.8 nM	–	–	–
GCCGAAAAUGUGAGGAUAUACCUAUGGAUACAUAGGUAGAAGGCACAUGAGGAUCACCCAUGUCCAAUAACGGC [Eli bmx4 4.25] (Eterna round: R97, puzzle: Brourd's mod of Exclusion 4)	528 nM	–	223 nM	–	–	–
GCCGAAAGUGUGAGGAUAUACCUAUGGAAACAUAGGUAGAAGGCACAUGAGGAUCACCCAUGUGUUUCAACGGC [Mat - Exclusion 4 - Eli Mod - D20] (Eterna round: R97, puzzle: Brourd's mod of Exclusion 4)	67 nM	–	24.5 nM	–	–	–
GCCGAGUGAGGAUAUACAUGAGGAUCACCCAUGUAAACACGAAAGCAAGUGUCCCUCAGUAGAAGGCGCCAGGA [Xeanonis] (puzzle: Exclusion 3)	–	–	–	13.9 nM	18.2 nM	14 nM

From the supplement of paper PMC9170038
